Consider 1 substance from paper PMC7171158.

The target of this test is NusA-AR2^D443C labeled with fluorescein-5-maleimide (E. coli) (UniProt P0AFF6). Nature of the test: fluorescence polarisation; fluorescence anisotropy; 25 nM fluorescein-labeled NusA-AR2^D443C with increasing unlabeled protein; 25 °C; 50 mM Na-P pH 6.5, 100 mM NaCl, 150 mM glucose, 5 mM DTT, 0.05% Tween; two-state binding model. Background: In fluorescence polarisation assays a small probe gives low polarisation when free and higher when bound to something large.

Usually Kd stands for the free concentration of one partner at which half of the binding sites on the other are occupied at equilibrium, for simple one-to-one binding. Lower therefore signals a tighter complex. “C-terminal domain of the RNA polymerase α subunit (αCTD) (domain or fragment)” came in with a Kd of 8 µM.
